Assay results published in patent US20110086006.
Read-outs that look alike come from different tables or passages of the source.

T1: internally quenched fluorogenic peptide (FRET substrate), Ac-DED(EDANS)EEαAbuψ[COO]ASK(DABCYL)-NH2
T1 chain: DEDEEXASK

T2: KK4A peptide (KKGSVVIVGRIVLSGK), central region of the NS4A cofactor from genotype 1a with lysine residues added for improved solubility
T2 chain: KKGSVVIVGRIVLSGK

B1: D168V mutant HCV NS3 serine protease domain, genotype 1b (protein)
chain: APITAYSQQTRGLLGCIITSLTGRDRNQVEGEVQVVSTATQSFLATCVNGVCWTVYHGAGSKTLAGPKGPITQMYTNVDQDLVGWQAPPGARSLTPCTCGSSDLYLVTRHADVIPVRRRGDSRGSLLSPRPVSYLKGSSGGPLLCPSGHAVGIFRAAVCTRGVAKAVVFVPVESMETTMRSHHHHHH
B2: D168A mutant HCV NS3 serine protease domain, genotype 1b (protein)
chain: APITAYSQQTRGLLGCIITSLTGRDRNQVEGEVQVVSTATQSFLATCVNGVCWTVYHGAGSKTLAGPKGPITQMYTNVDQDLVGWQAPPGARSLTPCTCGSSDLYLVTRHADVIPVRRRGDSRGSLLSPRPVSYLKGSSGGPLLCPSGHAVGIFRAAVCTRGVAKAVAFVPVESMETTMRSHHHHHH
B3: A156T mutant HCV NS3 serine protease domain, Con1 strain (protein)
chain: APITAYSQQTRGLLGCIITSLTGRDRNQVEGEVQVVSTATQSFLATCVNGVCWTVYHGAGSKTLAGPKGPITQMYTNVDQDLVGWQAPPGARSLTPCTCGSSDLYLVTRHADVIPVRRRGDSRGSLLSPRPVSYLKGSSGGPLLCPSGHAVGIFRTAVCTRGVAKAVDFVPVESMETTMRSHHHHHH
B4: A156V mutant HCV NS3 serine protease domain, Con1 strain (protein)
chain: APITAYSQQTRGLLGCIITSLTGRDRNQVEGEVQVVSTATQSFLATCVNGVCWTVYHGAGSKTLAGPKGPITQMYTNVDQDLVGWQAPPGARSLTPCTCGSSDLYLVTRHADVIPVRRRGDSRGSLLSPRPVSYLKGSSGGPLLCPSGHAVGIFRVAVCTRGVAKAVDFVPVESMETTMRSHHHHHH
B5: A156S mutant HCV NS3 serine protease domain, genotype 1b (protein)
chain: APITAYSQQTRGLLGCIITSLTGRDRNQVEGEVQVVSTATQSFLATCVNGVCWTVYHGAGSKTLAGPKGPITQMYTNVDQDLVGWQAPPGARSLTPCTCGSSDLYLVTRHADVIPVRRRGDSRGSLLSPRPVSYLKGSSGGPLLCPSGHAVGIFRSAVCTRGVAKAVDFVPVESMETTMRSHHHHHH
B6: wild type HCV NS3 serine protease domain, genotype 1b (Con1), residues Ala1-Ser181 with a C-terminal hexa-histidine tag (protein)
chain: APITAYSQQTRGLLGCIITSLTGRDRNQVEGEVQVVSTATQSFLATCVNGVCWTVYHGAGSKTLAGPKGPITQMYTNVDQDLVGWQAPPGARSLTPCTCGSSDLYLVTRHADVIPVRRRGDSRGSLLSPRPVSYLKGSSGGPLLCPSGHAVGIFRAAVCTRGVAKAVDFVPVESMETTMRSHHHHHH

Assays:
[1] = test system: KK4A peptide (KKGSVVIVGRIVLSGK), central region of the NS4A cofactor from genotype 1a with lysine residues added for improved solubility
[2] = test system: internally quenched fluorogenic peptide (FRET substrate), Ac-DED(EDANS)EEαAbuψ[COO]ASK(DABCYL)-NH2
[3] = molecular target: T1, internally quenched fluorogenic peptide …
[4] = molecular target: T2, KK4A peptide (KKGSVVIVGRIVLSGK), …

| Molecule | kinetic parameters for the FRET substrate [1] | Kcat [2] | Kcat/Km [2] | Km [2] | Kcat [3] | Kcat/Km [3] | Km [3] | kcat [3] | kcat/Km [3] | kinetic parameters for the FRET substrate [4] |
| --- | --- | --- | --- | --- | --- | --- | --- | --- | --- | --- |
| wild type HCV NS3 serine protease domain, genotype 1a | Although the NS4A peptide co-factor was from HCV genotype 1a, no discernable difference in the kinetic parameters was observed | 1.2 s⁻¹ | 897000 M⁻¹ s⁻¹ | 1.3 µM | – | – | – | – | – | – |
| B1 | – | – | – | – | 0.6 s⁻¹ | 498000 M⁻¹ s⁻¹ | 1.2 µM | – | – | – |
| B2 | – | – | – | – | 0.3 s⁻¹ | 150000 M⁻¹ s⁻¹ | 2 µM | – | – | – |
| B3 | – | – | – | – | – | – | 1.3 µM | 0.2 s⁻¹ | 136000 M⁻¹ s⁻¹ | – |
| B4 | – | – | – | – | – | – | 2.6 µM | 0.6 s⁻¹ | 234000 M⁻¹ s⁻¹ | – |
| B5 | – | – | – | – | 0.6 s⁻¹ | 664000 M⁻¹ s⁻¹ | 0.9 µM | – | – | – |
| B6 | – | – | – | – | 1 s⁻¹ | 947000 M⁻¹ s⁻¹ | 1.1 µM | 1 s⁻¹ | 947000 M⁻¹ s⁻¹ | Although the NS4A peptide co-factor was from HCV genotype 1a, no discernable difference in the kinetic parameters was observed |
